PMC9482650, “Quantitative fragmentomics allow affinity mapping of interactomes” (Nature Communications, 2022)

Legend:
Assay in all cases: holdup assay
Design in all cases: key: below the threshold = too weak to quantify, mostly under pKd 3.1 to 4
APBA2_1, Q99767 = biological target: T1, APBA2_1, Q99767
T1 sequence (Q99767 563-664, limits assumed, looked up): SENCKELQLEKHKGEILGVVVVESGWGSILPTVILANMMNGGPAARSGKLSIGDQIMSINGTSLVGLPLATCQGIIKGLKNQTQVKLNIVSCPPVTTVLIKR

APBA2_2, Q99767 = biological target: T2, APBA2_2, Q99767
T2 sequence (Q99767 654-744, limits assumed, looked up): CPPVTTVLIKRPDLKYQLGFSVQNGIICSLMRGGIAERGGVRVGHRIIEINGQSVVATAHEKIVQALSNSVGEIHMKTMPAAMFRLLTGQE

ARHGEF12, Q9NZN5-2 = biological target: ARHGEF12, Q9NZN5-2
ARHGEF12, Q9NZN5-2, sequence (Q9NZN5 other isoform, or with tags, fused parts or gaps): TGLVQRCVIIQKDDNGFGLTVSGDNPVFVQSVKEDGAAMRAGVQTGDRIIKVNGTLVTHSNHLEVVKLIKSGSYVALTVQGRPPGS

DFNB31_1, Q9P202 = biological target: T3, DFNB31_1, Q9P202
T3 sequence (Q9P202 135-233, limits assumed, looked up): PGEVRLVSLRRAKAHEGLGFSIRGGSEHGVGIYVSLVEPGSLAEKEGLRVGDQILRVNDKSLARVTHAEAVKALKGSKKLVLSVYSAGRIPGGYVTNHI

DLG3_1, Q92796 = biological target: T4, DLG3_1, Q92796
T4 sequence (Q92796 125-227, limits assumed, looked up): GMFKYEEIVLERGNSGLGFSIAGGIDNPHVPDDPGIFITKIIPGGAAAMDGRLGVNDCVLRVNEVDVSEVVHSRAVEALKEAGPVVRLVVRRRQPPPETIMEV

DLG4_1, P78352 = biological target: DLG4_1, P78352
DLG4_1, P78352, sequence (P78352 62-152): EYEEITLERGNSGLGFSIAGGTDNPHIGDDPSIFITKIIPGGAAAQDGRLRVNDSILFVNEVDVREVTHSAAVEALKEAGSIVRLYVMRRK

DLG4_2, P78352 = biological target: DLG4_2, P78352
DLG4_2, P78352, sequence (P78352 155-259): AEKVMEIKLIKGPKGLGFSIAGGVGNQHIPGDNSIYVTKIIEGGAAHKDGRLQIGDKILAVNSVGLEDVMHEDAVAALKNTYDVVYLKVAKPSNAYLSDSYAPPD

DVL3, Q92997 = biological target: T5, DVL3, Q92997
T5 sequence (Q92997 244-331, limits assumed, looked up): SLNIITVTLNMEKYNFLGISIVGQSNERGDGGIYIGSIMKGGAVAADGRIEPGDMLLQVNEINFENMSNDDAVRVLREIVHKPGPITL

GRIP2_4, Q9C0E4 = biological target: GRIP2_4, Q9C0E4
GRIP2_4, Q9C0E4, sequence (Q9C0E4 446-548): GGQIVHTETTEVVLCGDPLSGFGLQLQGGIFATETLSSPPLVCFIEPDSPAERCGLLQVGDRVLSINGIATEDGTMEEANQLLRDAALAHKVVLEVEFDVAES

GRIP2_5, Q9C0E4 = biological target: GRIP2_5, Q9C0E4
GRIP2_5, Q9C0E4, sequence (Q9C0E4 544-642): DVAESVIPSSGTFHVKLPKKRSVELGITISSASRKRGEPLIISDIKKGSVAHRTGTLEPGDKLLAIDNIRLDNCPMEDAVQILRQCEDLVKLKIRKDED

HTRA2, O43464 = biological target: HTRA2, O43464
HTRA2, O43464, sequence (O43464 355-458): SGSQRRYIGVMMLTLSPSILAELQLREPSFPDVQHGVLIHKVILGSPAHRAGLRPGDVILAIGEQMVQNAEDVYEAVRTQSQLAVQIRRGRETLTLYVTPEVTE

IL16_1, Q14005 = biological target: IL16_1, Q14005
IL16_1, Q14005, sequence (Q14005 210-306): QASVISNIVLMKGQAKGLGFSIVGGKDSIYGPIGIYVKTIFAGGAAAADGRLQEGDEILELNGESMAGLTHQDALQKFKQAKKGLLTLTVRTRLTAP

Inadl_9, Q8NI35 = biological target: Inadl_9, Q8NI35
Inadl_9, Q8NI35, sequence (Q8NI35 1530-1615): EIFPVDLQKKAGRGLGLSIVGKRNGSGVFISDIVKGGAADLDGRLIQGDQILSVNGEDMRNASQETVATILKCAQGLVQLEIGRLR

MAGI1_2, Q96QZ7 = biological target: MAGI1_2, Q96QZ7
MAGI1_2, Q96QZ7, sequence (Q96QZ7 456-580): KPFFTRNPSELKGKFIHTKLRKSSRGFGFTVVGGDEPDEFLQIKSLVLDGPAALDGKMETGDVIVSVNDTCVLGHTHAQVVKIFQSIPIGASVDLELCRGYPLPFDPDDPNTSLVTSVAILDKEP

MAGI2_4, Q86UL8 = biological target: MAGI2_4, Q86UL8
MAGI2_4, Q86UL8, sequence (Q86UL8 772-865): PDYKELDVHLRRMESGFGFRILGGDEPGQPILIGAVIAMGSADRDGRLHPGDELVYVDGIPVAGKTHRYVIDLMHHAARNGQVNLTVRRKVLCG

MAST2, Q6P0Q8 = biological target: MAST2, Q6P0Q8
MAST2, Q6P0Q8, sequence (Q6P0Q8 1099-1202): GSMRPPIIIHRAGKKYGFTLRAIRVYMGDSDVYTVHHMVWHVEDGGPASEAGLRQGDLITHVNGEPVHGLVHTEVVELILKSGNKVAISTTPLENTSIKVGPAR

NHERF3_4, Q5T2W1 = biological target: T6, NHERF3_4, Q5T2W1
T6 sequence (Q5T2W1 373-468, limits assumed, looked up): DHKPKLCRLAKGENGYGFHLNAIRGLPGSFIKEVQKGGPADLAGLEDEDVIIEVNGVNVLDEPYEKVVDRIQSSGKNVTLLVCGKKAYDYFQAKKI

PDLIM1, O00151 = biological target: PDLIM1, O00151
PDLIM1, O00151, sequence (O00151 1-87): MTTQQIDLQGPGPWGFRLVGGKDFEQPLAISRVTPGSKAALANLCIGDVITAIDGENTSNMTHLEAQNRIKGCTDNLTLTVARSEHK

PDZD7_3, Q9H5P4 = biological target: T7, PDZD7_3, Q9H5P4
T7 sequence (Q9H5P4 857-944, limits assumed, looked up): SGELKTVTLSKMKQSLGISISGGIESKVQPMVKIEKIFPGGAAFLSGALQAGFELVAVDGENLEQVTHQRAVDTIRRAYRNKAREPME

PTPN13_1, Q12923 = biological target: T8, PTPN13_1, Q12923
T8 sequence (Q12923 1088-1188, limits assumed, looked up): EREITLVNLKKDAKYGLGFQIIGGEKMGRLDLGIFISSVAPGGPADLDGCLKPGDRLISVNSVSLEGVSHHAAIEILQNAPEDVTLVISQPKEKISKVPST

PTPN3, P26045 = biological target: PTPN3, P26045
PTPN3, P26045, sequence (P26045 505-587): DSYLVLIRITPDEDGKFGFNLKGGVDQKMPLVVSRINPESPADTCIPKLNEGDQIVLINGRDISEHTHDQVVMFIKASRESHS

SHANK1, Q9Y566 = biological target: T9, SHANK1, Q9Y566
T9 sequence (Q9Y566 658-767, limits assumed, looked up): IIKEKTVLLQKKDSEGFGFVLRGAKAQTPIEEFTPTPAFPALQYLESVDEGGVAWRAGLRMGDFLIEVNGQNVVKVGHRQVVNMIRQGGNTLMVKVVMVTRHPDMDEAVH

SIPA1L2, Q9P2F8 = biological target: T10, SIPA1L2, Q9P2F8
T10 sequence (Q9P2F8 945-1036, limits assumed, looked up): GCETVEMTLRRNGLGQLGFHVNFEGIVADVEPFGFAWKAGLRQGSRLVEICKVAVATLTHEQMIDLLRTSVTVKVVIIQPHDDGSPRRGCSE

SNTA1, Q13424 = biological target: T11, SNTA1, Q13424
T11 sequence (Q13424 82-180, limits assumed, looked up): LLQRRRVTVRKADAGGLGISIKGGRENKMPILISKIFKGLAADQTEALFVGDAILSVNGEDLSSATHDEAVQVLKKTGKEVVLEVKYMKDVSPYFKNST

TJP1_2, Q07157 = biological target: TJP1_2, Q07157
TJP1_2, Q07157, sequence (Q07157 181-274): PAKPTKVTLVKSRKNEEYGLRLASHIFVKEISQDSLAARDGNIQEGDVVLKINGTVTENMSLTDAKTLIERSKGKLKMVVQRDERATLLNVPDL

TJP1_3, Q07157 = biological target: TJP1_3, Q07157
TJP1_3, Q07157, sequence (Q07157 416-512): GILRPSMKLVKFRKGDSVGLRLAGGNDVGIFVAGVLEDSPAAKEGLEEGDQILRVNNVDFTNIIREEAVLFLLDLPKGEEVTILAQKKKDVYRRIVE

[1] = plain residues with an end cap or a label only (N-terminal biotin on a linker: ttds)
[2] = plain residues with an end cap or a label only (N-terminal biotin on a linker: ahx)
[3] = plain residues with an end cap or a label only (N-terminal biotin on a linker: ado-ado)
[4] = plain residues with an end cap or a label only (N-terminal biotin on a linker: ado-ado, ttds)

## PPRQRSETQV [HPV82-E6, Q9IR59]
APBA2_1, Q99767; [1]
  pKd: below the threshold
APBA2_2, Q99767; [1]
  pKd: below the threshold
ARHGEF12, Q9NZN5-2; [1]
  pKd: 3.72
DFNB31_1, Q9P202; [1]
  pKd: below the threshold
DLG3_1, Q92796; [1]
  pKd: 4.12
DLG4_1, P78352; [1]
  pKd: 4.65
DLG4_2, P78352; [1]
  pKd: 4.9
DVL3, Q92997; [1]
  pKd: below the threshold
GRIP2_4, Q9C0E4; [1]
  pKd: below the threshold
GRIP2_5, Q9C0E4; [1]
  pKd: below the threshold
HTRA2, O43464; [1]
  pKd: below the threshold
IL16_1, Q14005; [1]
  pKd: below the threshold
Inadl_9, Q8NI35; [1]
  pKd: below the threshold
MAGI1_2, Q96QZ7; [1]
  pKd: 5.54
MAGI2_4, Q86UL8; [1]
  pKd: 4.72
MAST2, Q6P0Q8; [1]
  pKd: 5.18
NHERF3_4, Q5T2W1; [1]
  pKd: below the threshold
PDLIM1, O00151; [1]
  pKd: below the threshold
PDZD7_3, Q9H5P4; [1]
  pKd: 3.84
PTPN13_1, Q12923; [1]
  pKd: below the threshold
PTPN3, P26045; [1]
  pKd: 4.31
SHANK1, Q9Y566; [1]
  pKd: below the threshold
SIPA1L2, Q9P2F8; [1]
  pKd: below the threshold
SNTA1, Q13424; [1]
  pKd: 4.15
TJP1_2, Q07157; [1]
  pKd: below the threshold
TJP1_3, Q07157; [1]
  pKd: below the threshold

## SKKNELFSNL [NHERF1, O14745]
APBA2_1, Q99767; [2]
  pKd: below the threshold
APBA2_2, Q99767; [2]
  pKd: below the threshold
ARHGEF12, Q9NZN5-2; [2]
  pKd: 3.98
DFNB31_1, Q9P202; [2]
  pKd: below the threshold
DLG3_1, Q92796; [2]
  pKd: below the threshold
DLG4_1, P78352; [2]
  pKd: below the threshold
DLG4_2, P78352; [2]
  pKd: below the threshold
DVL3, Q92997; [2]
  pKd: below the threshold
GRIP2_4, Q9C0E4; [2]
  pKd: below the threshold
GRIP2_5, Q9C0E4; [2]
  pKd: below the threshold
HTRA2, O43464; [2]
  pKd: below the threshold
IL16_1, Q14005; [2]
  pKd: below the threshold
Inadl_9, Q8NI35; [2]
  pKd: below the threshold
MAGI1_2, Q96QZ7; [2]
  pKd: below the threshold
MAGI2_4, Q86UL8; [2]
  pKd: below the threshold
MAST2, Q6P0Q8; [2]
  pKd: 4.5
NHERF3_4, Q5T2W1; [2]
  pKd: below the threshold
PDLIM1, O00151; [2]
  pKd: below the threshold
PDZD7_3, Q9H5P4; [2]
  pKd: below the threshold
PTPN13_1, Q12923; [2]
  pKd: below the threshold
PTPN3, P26045; [2]
  pKd: below the threshold
SHANK1, Q9Y566; [2]
  pKd: below the threshold
SIPA1L2, Q9P2F8; [2]
  pKd: below the threshold
SNTA1, Q13424; [2]
  pKd: below the threshold
TJP1_2, Q07157; [2]
  pKd: below the threshold
TJP1_3, Q07157; [2]
  pKd: below the threshold

## SSIDLWETAL [SLC15A5, A6NIM6]
APBA2_1, Q99767; [1]
  pKd: below the threshold
APBA2_2, Q99767; [1]
  pKd: below the threshold
ARHGEF12, Q9NZN5-2; [1]
  pKd: 5.22
DFNB31_1, Q9P202; [1]
  pKd: 4.97
DLG3_1, Q92796; [1]
  pKd: 3.87
DLG4_1, P78352; [1]
  pKd: 4.29
DLG4_2, P78352; [1]
  pKd: 4.22
DVL3, Q92997; [1]
  pKd: below the threshold
GRIP2_4, Q9C0E4; [1]
  pKd: below the threshold
GRIP2_5, Q9C0E4; [1]
  pKd: below the threshold
HTRA2, O43464; [1]
  pKd: below the threshold
IL16_1, Q14005; [1]
  pKd: 4.29
Inadl_9, Q8NI35; [1]
  pKd: 3.7
MAGI1_2, Q96QZ7; [1]
  pKd: below the threshold
MAGI2_4, Q86UL8; [1]
  pKd: below the threshold
MAST2, Q6P0Q8; [1]
  pKd: 5.44
NHERF3_4, Q5T2W1; [1]
  pKd: 4.94
PDLIM1, O00151; [1]
  pKd: 4.22
PDZD7_3, Q9H5P4; [1]
  pKd: 5.56
PTPN13_1, Q12923; [1]
  pKd: below the threshold
PTPN3, P26045; [1]
  pKd: 5.4
SHANK1, Q9Y566; [1]
  pKd: 5.38
SIPA1L2, Q9P2F8; [1]
  pKd: below the threshold
SNTA1, Q13424; [1]
  pKd: 5.19
TJP1_2, Q07157; [1]
  pKd: below the threshold
TJP1_3, Q07157; [1]
  pKd: below the threshold

## ELKAEDEVQI [DCHS2, Q6V1P9]
APBA2_1, Q99767; [3]
  pKd: below the threshold
APBA2_2, Q99767; [3]
  pKd: below the threshold
ARHGEF12, Q9NZN5-2; [3]
  pKd: below the threshold
DFNB31_1, Q9P202; [3]
  pKd: below the threshold
DLG3_1, Q92796; [3]
  pKd: below the threshold
DLG4_1, P78352; [3]
  pKd: below the threshold
DLG4_2, P78352; [3]
  pKd: below the threshold
DVL3, Q92997; [3]
  pKd: below the threshold
GRIP2_4, Q9C0E4; [3]
  pKd: below the threshold
GRIP2_5, Q9C0E4; [3]
  pKd: below the threshold
HTRA2, O43464; [3]
  pKd: below the threshold
IL16_1, Q14005; [3]
  pKd: below the threshold
Inadl_9, Q8NI35; [3]
  pKd: below the threshold
MAGI1_2, Q96QZ7; [3]
  pKd: below the threshold
MAGI2_4, Q86UL8; [3]
  pKd: below the threshold
MAST2, Q6P0Q8; [3]
  pKd: below the threshold
NHERF3_4, Q5T2W1; [3]
  pKd: below the threshold
PDLIM1, O00151; [3]
  pKd: below the threshold
PDZD7_3, Q9H5P4; [3]
  pKd: below the threshold
PTPN13_1, Q12923; [3]
  pKd: below the threshold
PTPN3, P26045; [3]
  pKd: below the threshold
SHANK1, Q9Y566; [3]
  pKd: below the threshold
SIPA1L2, Q9P2F8; [3]
  pKd: below the threshold
SNTA1, Q13424; [3]
  pKd: below the threshold
TJP1_2, Q07157; [3]
  pKd: 3.87
TJP1_3, Q07157; [3]
  pKd: below the threshold

## SNAKAVETDV [KCNA4, P22459]
APBA2_1, Q99767; [4]
  pKd: below the threshold
APBA2_2, Q99767; [4]
  pKd: below the threshold
ARHGEF12, Q9NZN5-2; [4]
  pKd: 3.88
DFNB31_1, Q9P202; [4]
  pKd: below the threshold
DLG3_1, Q92796; [4]
  pKd: 4.25
DLG4_1, P78352; [4]
  pKd: 4.67
DLG4_2, P78352; [4]
  pKd: 5.19
DVL3, Q92997; [4]
  pKd: below the threshold
GRIP2_4, Q9C0E4; [4]
  pKd: below the threshold
GRIP2_5, Q9C0E4; [4]
  pKd: below the threshold
HTRA2, O43464; [4]
  pKd: below the threshold
IL16_1, Q14005; [4]
  pKd: below the threshold
Inadl_9, Q8NI35; [4]
  pKd: below the threshold
MAGI1_2, Q96QZ7; [4]
  pKd: below the threshold
MAGI2_4, Q86UL8; [4]
  pKd: 3.79
MAST2, Q6P0Q8; [4]
  pKd: 5.18
NHERF3_4, Q5T2W1; [4]
  pKd: below the threshold
PDLIM1, O00151; [4]
  pKd: 3.77
PDZD7_3, Q9H5P4; [4]
  pKd: below the threshold
PTPN13_1, Q12923; [4]
  pKd: below the threshold
PTPN3, P26045; [4]
  pKd: 4.53
SHANK1, Q9Y566; [4]
  pKd: below the threshold
SIPA1L2, Q9P2F8; [4]
  pKd: below the threshold
SNTA1, Q13424; [4]
  pKd: 4.7
TJP1_2, Q07157; [4]
  pKd: below the threshold
TJP1_3, Q07157; [4]
  pKd: below the threshold
